The target in experiment [1] is T1, human PTHrP (1-34) (human).
T1 construct: Synthetic peptide (Peninsula; Peptide Research Institute), coated on ELISA plates at 1 ug/ml; added at 1 ng/ml final in the cAMP assay; also called parathyroid hormone related peptide (1-34)
As to the kind of experiment: solid phase RIA of hybridoma culture supernatant. From the text: The hybridomas thus obtained was suspended into RPMI-1640 medium containing 15% FCS supplemented with OPI-supplement (Sigma), followed by unification of the hybridomas by limiting dilution method.

Experiment [2] concerns the target T1, human PTHrP (1-34). As to the kind of experiment: ELISA, plate coated with human PTHrP (1-34). The procedure:
An ELISA plate for determining antigen-binding ability was prepared as follows. Each well of a 96-well ELISA plate (Maxisorp, NUNC) was coated with 100 μl of a coating buffer containing 1 μg/ml of human PTHrP (1-34) and then blocked with 200 μl of a dilution buffer. Subsequently, each well was added with each of the serial dilutions of the COS-7 cell culture supernatant in which each of the hybrid antibodies and humanized antibodies was expressed, or added with each of the serial dilutions of each of the hybrid antibodies and humanized antibodies in a purified form. The plate was incubated at room temperature and washed with PBS-Tween 20. Subsequently, each well was added with 100 μl of alkaline phosphatase-conjugated goat anti-human IgG antibody (TAGO). The plate was incubated at room temperature and washed with PBS-Tween 20. Subsequently, each well was added with 1 mg/ml of a substrate solution (“Sigma 104”, p-nitrophenylphosphoric acid, SIGMA). The solution was measured on its absorbance at 405 nm using Microplate Reader (Bio Rad).
On the technique in general: ELISA stands for enzyme-linked immunosorbent assay.

B1: mouse monoclonal antibody #23-57-137-1 against human PTHrP (1-34) (antibody, V domains shown)
VH: EVQLVESGGDLVKPGGSLKLSCAASGFTFSSYGMSWIRQTPDKRLEWVATISSGGSYTYYPDSVKGRFTISRDNAKNTLYLQMSSLKSEDTAMFYCARQTTMTYFAYWGQGTLVTVSA
VL: QLVLTQSSSASFSLGASAKLTCTLSSQHSTYTIEWYQQQPLKPPKYVMDLKQDGSHSTGDGIPDRFSGSSSGADRYLSISNIQPEDEAMYICGVGDTIKEQFVYVFGGGTKVTVLG
notes: Mouse antibody from hybridoma culture supernatant; mouse lambda L-chain; H-chain cloned with an MHC-G1 primer
Turning to B1, the binding result in the experiment with human PTHrP (1-34) [1] is “binds”.

B2: chimeric #23-57-137-1 antibody with L-chain lambda chain C-region (antibody, V domains shown)
VH: EVQLVESGGDLVKPGGSLKLSCAASGFTFSSYGMSWIRQTPDKRLEWVATISSGGSYTYYPDSVKGRFTISRDNAKNTLYLQMSSLKSEDTAMFYCARQTTMTYFAYWGQGTLVTVSA
VL: QLVLTQSSSASFSLGASAKLTCTLSSQHSTYTIEWYQQQPLKPPKYVMDLKQDGSHSTGDGIPDRFSGSSSGADRYLSISNIQPEDEAMYICGVGDTIKEQFVYVFGGGTKVTVLG
notes: Mouse V-regions joined to human H-chain C-region Cgamma1 and human lambda C-region (isotype Mcg+Ke+Oz-, EMBL X57819); expressed in COS-7 cells; also called chimeric antibody; MBC1HcDNA/pCOS1 and MBC1L(λ)/neo
As for B2, the binding result in the experiment with human PTHrP (1-34) [2] is on record as “binds”.

B3: chimeric #23-57-137-1 antibody with L-chain kappa chain C-region (antibody, V domains shown)
VH: EVQLVESGGDLVKPGGSLKLSCAASGFTFSSYGMSWIRQTPDKRLEWVATISSGGSYTYYPDSVKGRFTISRDNAKNTLYLQMSSLKSEDTAMFYCARQTTMTYFAYWGQGTLVTVSA
VL: QLVLTQSSSASFSLGASAKLTCTLSSQHSTYTIEWYQQQPLKPPKYVMDLKQDGSHSTGDGIPDRFSGSSSGADRYLSISNIQPEDEAMYICGVGDTIKEQFVYVFGGGTKVTVLG
notes: Mouse V-regions joined to human H-chain C-region Cgamma1 and human kappa C-region (from plasmid HEF-PM1k-gk); expressed in COS-7 cells; also called chimeric antibody; MBC1HcDNA/pCOS1 and MBC1L(κ)/neo
With B3, the binding result with human PTHrP (1-34) [2] is given as “binds”.

B4: humanized #23-57-137-1 antibody having L-chain version "s" (antibody, V domains shown)
VH: QVQLVESGGGVVQPGRSLRLSCAASGFTFSSYGMSWVRQAPGKGLEWVATISSGGSYTYYPDSVKGRFTISRDNSKNTLYLQMNSLRAEDTAVYYCARQTTMTYFAYWGQGTLVTVSS
VL: QLVLTQSPSASASLGASVKLTCTLSSQHSTYTIEWYQQQPEKGPKYVMDLKQDGSHSTGDGIPDRFSGSSSGAERYLTISSLQSEDEADYICGVGDTIKEQFVYVFGGGTKLTVLG
notes: Humanized H-chain version a with human Cgamma1; human lambda C-region; COS-7 expressed; also called hMBC1HcDNA/pCOS1 and hMBC1Lsλ/pCOS1
Regarding B4, in the experiment with human PTHrP (1-34) [2], the binding result is listed as “binds”.

B5: humanized #23-57-137-1 antibody having L-chain version "r" (antibody, V domains shown)
VH: QVQLVESGGGVVQPGRSLRLSCAASGFTFSSYGMSWVRQAPGKGLEWVATISSGGSYTYYPDSVKGRFTISRDNSKNTLYLQMNSLRAEDTAVYYCARQTTMTYFAYWGQGTLVTVSS
VL: QLVLTQSPSASASLGASVKLTCTLSSQHSTYTIEWYQQQPEKGPRYLMDLKQDGSHSTGDGIPDRFSGSSSGAERYLTISSLQSEDEADYICGVGDTIKEQFVYVFGGGTKLTVLG
notes: Humanized H-chain version a with human Cgamma1; human lambda C-region; COS-7 expressed (also CHO); also called hMBC1HcDNA/pCOS1 and hMBC1Lrλ/pCOS1
As to B5, the binding result with human PTHrP (1-34) [2] is recorded as “binds”.

B6: mouse FR1,2/human FR3,4 hybrid antibody, L-chain m/hMBC1Laλ (antibody, V domains shown)
VH: QVQLVESGGGVVQPGRSLRLSCAASGFTFSSYGMSWVRQAPGKGLEWVATISSGGSYTYYPDSVKGRFTISRDNSKNTLYLQMNSLRAEDTAVYYCARQTTMTYFAYWGQGTLVTVSS
VL: QLVLTQSSSASFSLGASAKLTCTLSSQHSTYTIEWYQQQPLKPPKYVMDLKQDGSHSTGDGIPDRFSGSSSGAERYLTISSLQSEDEADYYCGVGDTIKEQFVYVFGGGTKLTVL
notes: H-chain from hMBC1HcDNA/pCOS1 (humanized version a, human Cgamma1); human lambda C-region
For B6, in the experiment with human PTHrP (1-34) [2], the binding result is “binds”.

B7: humanized #23-57-137-1 antibody having L-chain version "o" (antibody, V domains shown)
VH: QVQLVESGGGVVQPGRSLRLSCAASGFTFSSYGMSWVRQAPGKGLEWVATISSGGSYTYYPDSVKGRFTISRDNSKNTLYLQMNSLRAEDTAVYYCARQTTMTYFAYWGQGTLVTVSS
VL: QLVLTQSPSASASLGASVKLTCTLSSQHSTYTIEWYQQQPEKGPRYVMDLKQDGSHSTGDGIPDRFSGSSSGAERYLTISSLQSEDEADYYCGVGDTIKEQFVYVFGGGTKLTVLG
notes: Humanized H-chain version a with human Cgamma1; human lambda C-region; COS-7 expressed; also called hMBC1HcDNA/pCOS1 and hMBC1Loλ/pCOS1
B7: the binding result with human PTHrP (1-34) [2] is reported as “binds”.

B8: antibody having both a humanized H-chain version "a" and a chimeric L-chain (antibody, V domains shown)
VH: QVQLVESGGGVVQPGRSLRLSCAASGFTFSSYGMSWVRQAPGKGLEWVATISSGGSYTYYPDSVKGRFTISRDNSKNTLYLQMNSLRAEDTAVYYCARQTTMTYFAYWGQGTLVTVSS
VL: QLVLTQSSSASFSLGASAKLTCTLSSQHSTYTIEWYQQQPLKPPKYVMDLKQDGSHSTGDGIPDRFSGSSSGADRYLSISNIQPEDEAMYICGVGDTIKEQFVYVFGGGTKVTVLG
notes: Human Cgamma1 H-chain C-region
Regarding B8, in the experiment with human PTHrP (1-34) [2], the binding result is “binds”.

B9: humanized #23-57-137-1 antibody having L-chain version "j" (antibody, V domains shown)
VH: QVQLVESGGGVVQPGRSLRLSCAASGFTFSSYGMSWVRQAPGKGLEWVATISSGGSYTYYPDSVKGRFTISRDNSKNTLYLQMNSLRAEDTAVYYCARQTTMTYFAYWGQGTLVTVSS
VL: QLVLTQSPSASASLGASVKLTCTLSSQHSTYTIEWYQQQPEKGPKYLMDLKQDGSHSTGDGIPDRFSGSSSGAERYLTISSLQSEDEADYYCGVGDTIKEQFVYVFGGGTKLTVLG
notes: Humanized H-chain version a with human Cgamma1; human lambda C-region; COS-7 expressed; also called hMBC1HcDNA/pCOS1 and hMBC1Ljλ/pCOS1
With B9, the binding result in the experiment with human PTHrP (1-34) [2] is given as “binds”.

B10: humanized #23-57-137-1 antibody having L-chain version "t" (antibody, V domains shown)
VH: QVQLVESGGGVVQPGRSLRLSCAASGFTFSSYGMSWVRQAPGKGLEWVATISSGGSYTYYPDSVKGRFTISRDNSKNTLYLQMNSLRAEDTAVYYCARQTTMTYFAYWGQGTLVTVSS
VL: QLVLTQSPSASASLGASVKLTCTLSSQHSTYTIEWYQQQPEKGPRYVMDLKQDGSHSTGDGIPDRFSGSSSGAERYLTISSLQSEDEADYICGVGDTIKEQFVYVFGGGTKLTVLG
notes: Humanized H-chain version a with human Cgamma1; human lambda C-region; COS-7 expressed; also called hMBC1HcDNA/pCOS1 and hMBC1Ltλ/pCOS1
In the case of B10, in the experiment with human PTHrP (1-34) [2], the binding result is “binds”.

B11: humanized #23-57-137-1 antibody having L-chain version "m" (antibody, V domains shown)
VH: QVQLVESGGGVVQPGRSLRLSCAASGFTFSSYGMSWVRQAPGKGLEWVATISSGGSYTYYPDSVKGRFTISRDNSKNTLYLQMNSLRAEDTAVYYCARQTTMTYFAYWGQGTLVTVSS
VL: QLVLTQSPSASASLGASVKLTCTLSSQHSTYTIEWYQQQPEKGPRYLMDLKQDGSHSTGDGIPDRFSGSSSGAERYLTISSLQSEDEADYYCGVGDTIKEQFVYVFGGGTKLTVLG
notes: Humanized H-chain version a with human Cgamma1; human lambda C-region; COS-7 expressed; also called hMBC1HcDNA/pCOS1 and hMBC1Lmλ/pCOS1
With B11, the binding result in the experiment with human PTHrP (1-34) [2] is on record as “binds”.

B12: humanized #23-57-137-1 antibody having L-chain version "l" (antibody, V domains shown)
VH: QVQLVESGGGVVQPGRSLRLSCAASGFTFSSYGMSWVRQAPGKGLEWVATISSGGSYTYYPDSVKGRFTISRDNSKNTLYLQMNSLRAEDTAVYYCARQTTMTYFAYWGQGTLVTVSS
VL: QLVLTQSPSASASLGASVKLTCTLSSQHSTYTIEWYQQQPEKGPKYVMDLKQDGSHSTGDGIPDRFSGSSSGAERYLTISSLQSEDEADYYCGVGDTIKEQFVYVFGGGTKLTVLG
notes: Humanized H-chain version a with human Cgamma1; human lambda C-region; COS-7 expressed; also called hMBC1HcDNA/pCOS1 and hMBC1Llλ/pCOS1
Take B12: the binding result with human PTHrP (1-34) [2] was “binds”.

B13: humanized #23-57-137-1 antibody having L-chain version "q" (antibody, V domains shown)
VH: QVQLVESGGGVVQPGRSLRLSCAASGFTFSSYGMSWVRQAPGKGLEWVATISSGGSYTYYPDSVKGRFTISRDNSKNTLYLQMNSLRAEDTAVYYCARQTTMTYFAYWGQGTLVTVSS
VL: QLVLTQSPSASASLGASVKLTCTLSSQHSTYTIEWYQQQPEKGPKYLMDLKQDGSHSTGDGIPDRFSGSSSGAERYLTISSLQSEDEADYICGVGDTIKEQFVYVFGGGTKLTVLG
notes: Humanized H-chain version a with human Cgamma1; human lambda C-region; COS-7 expressed (also CHO); also called hMBC1HcDNA/pCOS1 and hMBC1Lqλ/pCOS1
Take B13: the binding result with human PTHrP (1-34) [2] was “binds”.

B14: human FR1/mouse FR2,3,4 hybrid antibody, L-chain hmmMBC1L(λ) (antibody, V domains shown)
VH: QVQLVESGGGVVQPGRSLRLSCAASGFTFSSYGMSWVRQAPGKGLEWVATISSGGSYTYYPDSVKGRFTISRDNSKNTLYLQMNSLRAEDTAVYYCARQTTMTYFAYWGQGTLVTVSS
VL: QLVLTQSPSASASLGASVKLTCTLSSQHSTYTIEWYQQQPLKPPKYVMDLKQDGSHSTGDGIPDRFSGSSSGADRYLSISNIQPEDEAMYICGVGDTIKEQFVYVFGGGTKVTVL
notes: H-chain from hMBC1HcDNA/pCOS1 (humanized version a, human Cgamma1); human lambda C-region; also called FR1/FR2 hybrid antibody
With B14, the binding result in the experiment with human PTHrP (1-34) [2] is recorded as “binds”.
